According to publication PMC3958441, “Isl1 and Pou4f2 Form a Complex to Regulate Target Genes in Developing Retinal Ganglion Cells” (PLoS ONE, 2014):

B1: EBF3(M) (dsDNA)
DNA 1: GTGCGTTGCTATTTTCGTTGCTCGGGAAAA
DNA 2: TTTTCCCGAGCAACGAAAATAGCAACGCAC
B2: Isl1D5 (a.a. 74-349) (domain or fragment, mouse, UniProt P61372 74-349, looked up)
chain: LYGIKCAKCSIGFSKNDFVMRARSKVYHIECFRCVACSRQLIPGDEFALREDGLFCRADHDVVERASLGAGDPLSPLHPARPLQMAAEPISARQPALRPHVHKQPEKTTRVRTVLNEKQLHTLRTCYAANPRPDALMKEQLVEMTGLSPRVIRVWFQNKRCKDKKRSIMMKQLQQQQPNDKTNIQGMTGTPMVAASPERHDGGLQANPVEVQSYQPPWKVLSDFALQSDIDQPAFQQLVNFSEGGPGSNSTGSEVASMSSQLPDTPNSMVASPIEA
notes: Isl1, mouse, a.a; 74-349; source: E. coli, in lysate (pull-down); purified on His SpinTrap columns (EMSA); not shown: His tag, C-terminal, kept
B3: EBF3(W) (dsDNA)
DNA 1: GTGCGTTAATATTTTAATTAATCGGGAAAA
DNA 2: TTTTCCCGATTAATTAAAATATTAACGCAC
B4: Isl1, full-length, His-tagged (natural protein, mouse, UniProt P61372 1-349, looked up)
chain: MGDMGDPPKKKRLISLCVGCGNQIHDQYILRVSPDLEWHAACLKCAECNQYLDESCTCFVRDGKTYCKRDYIRLYGIKCAKCSIGFSKNDFVMRARSKVYHIECFRCVACSRQLIPGDEFALREDGLFCRADHDVVERASLGAGDPLSPLHPARPLQMAAEPISARQPALRPHVHKQPEKTTRVRTVLNEKQLHTLRTCYAANPRPDALMKEQLVEMTGLSPRVIRVWFQNKRCKDKKRSIMMKQLQQQQPNDKTNIQGMTGTPMVAASPERHDGGLQANPVEVQSYQPPWKVLSDFALQSDIDQPAFQQLVNFSEGGPGSNSTGSEVASMSSQLPDTPNSMVASPIEA
notes: Isl1, mouse, full-length coding region in pET-28a(+); 349 a.a; source: E. coli, in lysate (pull-down); purified on His SpinTrap columns (EMSA); not shown: His tag, C-terminal, kept
B5: SBRN3(M) (dsDNA)
DNA 1: GCACACGACCCAGCGCGTTGACAACCGGGCTG
DNA 2: GCAGCCCGGTTGTCAACGCGCTGGGTCGTGTG
B6: Isl1D3 (a.a. 170-349) (domain or fragment, mouse, UniProt P61372 170-349, looked up)
chain: LRPHVHKQPEKTTRVRTVLNEKQLHTLRTCYAANPRPDALMKEQLVEMTGLSPRVIRVWFQNKRCKDKKRSIMMKQLQQQQPNDKTNIQGMTGTPMVAASPERHDGGLQANPVEVQSYQPPWKVLSDFALQSDIDQPAFQQLVNFSEGGPGSNSTGSEVASMSSQLPDTPNSMVASPIEA
notes: Isl1, mouse, a.a; 170-349, only the homeodomain and the C terminal region, none of the Lim domains; source: E. coli, in lysate (pull-down); purified on His SpinTrap columns (EMSA); not shown: His tag, C-terminal, kept
B7: Isl1D4 (a.a. 146-349) (domain or fragment, mouse, UniProt P61372 146-349, looked up)
chain: PLSPLHPARPLQMAAEPISARQPALRPHVHKQPEKTTRVRTVLNEKQLHTLRTCYAANPRPDALMKEQLVEMTGLSPRVIRVWFQNKRCKDKKRSIMMKQLQQQQPNDKTNIQGMTGTPMVAASPERHDGGLQANPVEVQSYQPPWKVLSDFALQSDIDQPAFQQLVNFSEGGPGSNSTGSEVASMSSQLPDTPNSMVASPIEA
notes: Isl1, mouse, a.a; 146-349; source: E. coli, in lysate (pull-down); purified on His SpinTrap columns (EMSA); not shown: His tag, C-terminal, kept
B8: Pou4f2D5 (a.a. 125-411) (domain or fragment, mouse, UniProt Q63934 125-411, looked up)
chain: SKSHHHHPPHHSPFKPDATYHTMNTIPCTSAASSSSVPISHPSALAGTHHHHHHHHHHHHQPHQALEGELLEHLSPGLALGAMAGPDGTVVSTPAHAPHMATMNPMHQAALSMAHAHGLPSHMGCMSDVDADPRDLEAFAERFKQRRIKLGVTQADVGSALANLKIPGVGSLSQSTICRFESLTLSHNNMIALKPILQAWLEEAEKSHREKLTKPELFNGAEKKRKRTSIAAPEKRSLEAYFAIQPRPSSEKIAAIAEKLDLKKNVVRVWFCNQRQKQKRMKYSAGI
notes: Pou4f2, mouse, a.a; 125-411, POU and homeo domains intact; source: E. coli, in lysate (pull-down); purified on His SpinTrap columns (EMSA); not shown: His tag, C-terminal, kept
B9: IRX6(M) (dsDNA)
DNA 1: TACTACTGCTTCGTTGCTTGCAAACATTTC
DNA 2: GGAAATGTTTGCAAGCAACGAAGCAGTAGTA
B10: IRX6(W) (dsDNA)
DNA 1: GTACTACTAATTAATTAATTGCAAACATTTC
DNA 2: GGAAATGTTTGCAATTAATTAATTAGTAGTA
B11: CBRN3(M) (dsDNA)
DNA 1: GATCTCTCCTGCGCGGTTGACTACCCCCGGAT
DNA 2: GATCCGGGGGTAGTCAACCGCGCAGGAGAGAT
B12: Pou4f2 expressed in HEK 293 cells (natural protein, mouse, UniProt Q63934 1-411, looked up)
chain: MMMMSLNSKQAFSMPHAGSLHVEPKYSALHSASPGSSAPAAPSASSPSSSSNAGGGGGGGGGGGGGGRSSSSSSSGSGGSGGGGGSEAMRRACLPTPPSNIFGGLDESLLARAEALAAVDIVSQSKSHHHHPPHHSPFKPDATYHTMNTIPCTSAASSSSVPISHPSALAGTHHHHHHHHHHHHQPHQALEGELLEHLSPGLALGAMAGPDGTVVSTPAHAPHMATMNPMHQAALSMAHAHGLPSHMGCMSDVDADPRDLEAFAERFKQRRIKLGVTQADVGSALANLKIPGVGSLSQSTICRFESLTLSHNNMIALKPILQAWLEEAEKSHREKLTKPELFNGAEKKRKRTSIAAPEKRSLEAYFAIQPRPSSEKIAAIAEKLDLKKNVVRVWFCNQRQKQKRMKYSAGI

Tests used:
Isl1 = molecular target: T1, Isl1 (mouse, UniProt P61372 1-349); test: EMSA; EMSA: 20 mM Tris-HCl pH 7.5, 50 mM NaCl, 10 mM DTT, 1 mM EDTA, 5% glycerol, 200 ng dI/dC, 200 ng each protein in 20 ul, 4 C, 30 min; 8% PAGE, 1x TBE, 4 C; conditions: protein: recombinant, tags: His (C-terminal, pET-28a)
T1 sequence: B4 chain

Pou4f2D5 = molecular target: T2, Pou4f2D5 (mouse, UniProt Q63934 125-411); test: as above; conditions: protein: recombinant, tags: His (C-terminal)
T2 sequence: B8 chain

[1] = molecular target: T3, Pou4f2, full-length, His-tagged (mouse, UniProt Q63934 1-411); test: native gel or EMSA; EMSA with purified His-tagged proteins (200 ng each) and radiolabelled DNA probes (SBRN3, CBRN3; Ebf3 and Irx6 for Isl1 with Pou4f2D5); protein-protein complex read from a slower migrating ternary complex on DNA; 20 mM Tris-HCl pH 7.5, 0.05 M NaCl, 10 mM DTT, 1 mM EDTA, 5% glycerol, 4 C; conditions: both partners purified
T3 construct: Pou4f2 (Brn3b), mouse, full-length coding region in pET-28a(+); 411 a.a; also called Brn3b; source: E. coli, in lysate (pull-down); purified on His SpinTrap columns (EMSA); not shown: His tag, C-terminal, kept
T3 sequence (looked up): B12 chain

Pou4f2 (Brn3b) = molecular target: T4, Pou4f2 (Brn3b) (mouse, UniProt Q63934 1-411); test: EMSA; EMSA: 20 mM Tris-HCl pH 7.5, 50 mM NaCl, 10 mM DTT, 1 mM EDTA, 5% glycerol, 200 ng dI/dC, 200 ng each protein in 20 ul, 4 C, 30 min; 8% PAGE, 1x TBE, 4 C; conditions: protein: recombinant; tags: His (C-terminal, pET-28a); (radiolabel, Klenow fill-in); 5' overhang 1 nt at both ends before fill-in
T4 sequence: B12 chain

[2] = molecular target: B4; test: native gel or EMSA; EMSA with purified His-tagged proteins (200 ng each) and radiolabelled DNA probes (SBRN3, CBRN3; Ebf3 and Irx6 for Isl1 with Pou4f2D5); protein-protein complex read from a slower migrating ternary complex on DNA; 20 mM Tris-HCl pH 7.5, 0.05 M NaCl, 10 mM DTT, 1 mM EDTA, 5% glycerol, 4 C; conditions: both partners purified
[3] = molecular target: T5, Isl1 expressed in HEK 293 cells (mouse, UniProt P61372 1-349); test: cell-based or functional assay
T5 sequence (looked up): B4 chain

[4] = (radiolabel, Klenow fill-in), 5' overhang 1 nt at both ends before fill-in
[5] = (radiolabel, Klenow fill-in), one end blunt, lower strand 5' overhang 1 nt before fill-in

## B1
Isl1; (radiolabel, Klenow), blunt
  binding result: no binding
Pou4f2D5; (radiolabel, Klenow), blunt
  binding result: no binding

## B2
[1]
  binding result: binds

## B3
Isl1; (radiolabel, Klenow), blunt
  binding result: binds
Pou4f2D5; (radiolabel, Klenow), blunt
  binding result: binds

## B4
[1]
  binding result: binds

## B5
Isl1; [4]
  binding result: no binding
Pou4f2 (Brn3b)
  binding result: no binding

## B6
[1]
  binding result: binds

## B7
[1]
  binding result: binds

## B8
[2]
  binding result: binds

## B9
Isl1; [5]
  binding result: no binding
Pou4f2D5; [5]
  binding result: no binding

## B10
Isl1; [4]
  binding result: binds
Pou4f2D5; [4]
  binding result: binds

## B11
Isl1; [4]
  binding result: no binding
Pou4f2 (Brn3b)
  binding result: no binding

## B12
[3]
  luciferase reporter with the CBRN3 motif in HEK 293 cells, both expression constructs co-transfected, fold increase from the control (each factor alone about 2.5 fold): ~3.5 fold
